This note sets out measurements from patent US7981423B2, “Rage fusion proteins” (Transtech Pharma, Inc., priority 2004, dated 2011).

This data set can be described thus: Pharmacokinetic profile of TTP-4000 after IV injection. Type of data set: in vivo, monkeys. As to conditions: single IV bolus 5 mg/kg; plasma; after saturation of ligands; FIG. 11. How it is done: Following collection, the tubes were placed on wet ice (maximum 30 minutes) until centrifugation under refrigeration (at 2 to 8° C.) at 1500×g for 15 minutes. Each harvested plasma sample was then stored frozen (−70° C.±10° C.) until assayed for RAGE polypeptide using an ELISA at various time-points following the injection, as described in Example 6.
Initially, 50 uL of the RAGE specific monoclonal antibody 1HB1011 at a concentration of 10 ug/mL in 1×PBS pH 7.3 is coated on plates via overnight incubation. When ready for use, plates are washed three times with 300 uL of 1× Imidazole-Tween wash buffer and blocked with 1% BSA. […] The samples are allowed to incubate at room temperature for one hour. After incubation, the plates are plates are washed three times. A Goat Anti-human IgG1 1 (Sigma A33 12) AP conjugate in 1×PBS with 1% BSA is added and allowed to incubate at room temperature for 1 hour. The plates are washed three times. Color was elucidated with paranitrophenylphosphate.

B1: TTP-4000: four domain RAGE fusion protein (SEQ ID NO: 32): human RAGE amino acids 1-251 linked to CH2 and CH3 domains of human IgG (protein)
chain: MAAGTAVGAWALVLSLWGAVVGAQNITARIGEPLVLKCKGAPKKPPQRLEWKLNTGRTEAWKVLSPQGGGPWDSVARVLPNGSLFLPAVGIQDEGIFRCQAMNRNGKETKSNYRVRVYQIPGKPEIVDSASELTAGVPNKVGTCVSEGSYPAGTLSWHLDGKPLVPNEKGVSVKEQTRRHPETGLFTLQSELMVTPARGGDPRPTFSCSFSPGLPRHRALRTAPIQPRVWEPVPLEEVQLVVEPEGGAVAPPSVFLFPPKPKDTLMISRTPEVTCVVVDVSHEDPEVKFNWYVDGVEVHNAKTKPREEQYNSTYRVVSVLTVLHQDWLNGKEYKCKVSNKALPAPIEKTISKAKGQPREPQVYTLPPSRDELTKNQVSLTCLVKGFYPSDIAVEWESNGQPENNYKTTPPVLDSDGSFFLYSKLTVDKSRWQQGNVFSCSVMHEALHNHYTQKSLSLSPGK
As for B1, the terminal half-life result is “greater than 300 hours”.
